Laboratory results published in IntAct's records for PubMed 23481255.

B1: ADP-ribose glycohydrolase OARD1 (Homo sapiens), Q9Y530 (parent)
chain: MASSLNEDPEGSRITYVKGDLFACPKTDSLAHCISEDCRMGAGIAVLFKKKFGGVQELLNQQKKSGEVAVLKRDGRYIYYLITKKRASHKPTYENLQKSLEAMKSHCLKNGVTDLSMPRIGCGLDRLQWENVSAMIEEVFEATDIKITVYTL
B2: ADP-ribose glycohydrolase OARD1 (Homo sapiens), Q9Y530 (parent)
chain: B1 chain
partner: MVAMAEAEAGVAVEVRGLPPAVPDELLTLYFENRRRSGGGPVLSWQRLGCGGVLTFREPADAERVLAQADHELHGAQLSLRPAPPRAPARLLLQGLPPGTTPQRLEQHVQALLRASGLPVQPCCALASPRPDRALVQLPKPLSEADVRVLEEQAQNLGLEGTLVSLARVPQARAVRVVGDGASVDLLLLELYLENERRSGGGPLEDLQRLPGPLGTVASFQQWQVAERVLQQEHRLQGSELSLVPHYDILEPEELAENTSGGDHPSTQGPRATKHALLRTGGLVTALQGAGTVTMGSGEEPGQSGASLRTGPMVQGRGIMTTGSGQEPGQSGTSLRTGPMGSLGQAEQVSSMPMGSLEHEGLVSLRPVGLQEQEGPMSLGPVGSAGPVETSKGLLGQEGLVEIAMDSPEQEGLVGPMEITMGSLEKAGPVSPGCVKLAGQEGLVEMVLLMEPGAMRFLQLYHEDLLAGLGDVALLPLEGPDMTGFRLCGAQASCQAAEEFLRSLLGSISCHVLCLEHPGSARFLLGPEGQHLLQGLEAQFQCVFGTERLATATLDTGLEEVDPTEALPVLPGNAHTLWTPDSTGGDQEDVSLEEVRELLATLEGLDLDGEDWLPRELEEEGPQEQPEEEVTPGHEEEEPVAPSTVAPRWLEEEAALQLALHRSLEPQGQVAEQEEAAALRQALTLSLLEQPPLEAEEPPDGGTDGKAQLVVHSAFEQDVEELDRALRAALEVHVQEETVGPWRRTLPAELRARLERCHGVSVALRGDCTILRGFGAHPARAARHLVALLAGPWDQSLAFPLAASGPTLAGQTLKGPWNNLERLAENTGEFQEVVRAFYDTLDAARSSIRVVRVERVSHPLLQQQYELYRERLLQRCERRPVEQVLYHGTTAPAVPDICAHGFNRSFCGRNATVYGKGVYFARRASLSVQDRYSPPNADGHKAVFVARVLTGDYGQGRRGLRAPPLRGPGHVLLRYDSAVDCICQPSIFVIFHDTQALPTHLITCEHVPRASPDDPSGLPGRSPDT

Variants of: B1
Details: with parp1_human PARP1, P09874
parp1_human PARP1, P09874, sequence (P09874 whole entry): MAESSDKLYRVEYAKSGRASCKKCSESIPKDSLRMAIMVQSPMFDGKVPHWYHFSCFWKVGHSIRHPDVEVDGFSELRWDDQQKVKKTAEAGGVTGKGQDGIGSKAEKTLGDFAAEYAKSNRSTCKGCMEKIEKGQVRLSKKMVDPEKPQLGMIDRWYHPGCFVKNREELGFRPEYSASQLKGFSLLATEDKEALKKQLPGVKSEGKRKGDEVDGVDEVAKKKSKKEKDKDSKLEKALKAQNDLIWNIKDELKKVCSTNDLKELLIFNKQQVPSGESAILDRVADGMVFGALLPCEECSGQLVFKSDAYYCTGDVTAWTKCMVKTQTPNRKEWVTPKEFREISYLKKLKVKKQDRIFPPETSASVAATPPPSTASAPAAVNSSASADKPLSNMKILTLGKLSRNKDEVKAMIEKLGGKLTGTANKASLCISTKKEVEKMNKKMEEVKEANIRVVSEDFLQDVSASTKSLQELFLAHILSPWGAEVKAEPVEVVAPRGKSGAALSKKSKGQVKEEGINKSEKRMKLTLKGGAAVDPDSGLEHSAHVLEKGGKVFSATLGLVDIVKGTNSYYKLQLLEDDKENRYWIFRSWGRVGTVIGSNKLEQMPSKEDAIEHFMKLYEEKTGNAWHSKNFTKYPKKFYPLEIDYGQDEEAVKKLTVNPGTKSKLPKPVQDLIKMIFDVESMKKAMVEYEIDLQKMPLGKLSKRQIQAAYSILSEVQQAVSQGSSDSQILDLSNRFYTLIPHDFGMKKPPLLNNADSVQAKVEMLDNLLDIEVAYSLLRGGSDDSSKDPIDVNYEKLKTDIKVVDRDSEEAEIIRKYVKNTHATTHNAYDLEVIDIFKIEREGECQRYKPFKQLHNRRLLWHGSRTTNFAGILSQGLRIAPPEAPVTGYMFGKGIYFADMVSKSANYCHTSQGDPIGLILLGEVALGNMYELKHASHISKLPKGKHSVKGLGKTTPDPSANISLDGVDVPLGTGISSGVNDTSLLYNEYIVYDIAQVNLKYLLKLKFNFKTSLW

effect of a mutation on the interaction | Variant
disrupting interaction | MASSLNEDPEGSRITYVKGDLFACPKTDSLAHCISEDCRMGAGIAVLFKKKFGGVQELLNQQKKSGEVAVLKRDGRYIYYLITKKRASHKPTYENLQKSLEAMKSHCLKNGVTDLSMPRIGCELDRLQWENVSAMIEEVFEATDIKITVYTL [G123E]

Variants of: B1
Details: with parp1_human PARP1, P09874
Remark: another data set of the same source

effect of a mutation on the interaction | Variant
disrupting interaction | MASSLNEDPEGSRITYVKGDLFACPKTDSLAHCISEDCRMGAGIAVLFKKKFGGVQELLNQQKKSGEVAVLKRDGRYIYYLITKKRASHKPTYENLQKSLEAMKSHCLKNGVTDLSMPRIGCGLARLQWENVSAMIEEVFEATDIKITVYTL [D125A]

Variants of: B1
Details: with parp1_human PARP1, P09874
Remark: another data set of the same source

effect of a mutation on the interaction | Variant
increasing interaction | MASSLNEDPEGSRITYVKGDLFACPKTDSLAHCISEDCRMGAGIAVLFKKKFGGVQELLNQQKKSGEVAVLKRDGRYIYYLITKKRASHKPTYENLQKSLEAMKSHCLKNGVTDLSMPRIGCGLARLQWENVSAMIEEVFEATDIKITVYTL [D125A]

Variants of: B1
Details: with parp1_human PARP1, P09874
Remark: another data set of the same source

effect of a mutation on the interaction | Variant
disrupting interaction | MASSLNEDPEGSRITYVKGDLFACPKTDSLAHCISEDCRMGAGIAVLFKKKFGGVQELLNQQKKSGEVAVLKRDGRYIYYLITRKRASHKPTYENLQKSLEAMKSHCLKNGVTDLSMPRIGCGLDRLQWENVSAMIEEVFEATDIKITVYTL [K84R]

Variants of: B1
Details: with parp1_human PARP1, P09874
Remark: another data set of the same source

effect of a mutation on the interaction | Variant
disrupting interaction | MASSLNEDPEGSRITYVKGDLFACPKTDSLAHCISEDCRMGAGIAVLFKKKFGGVQELLNQQKKSGEVAVLKRDGRYIYYLITAKRASHKPTYENLQKSLEAMKSHCLKNGVTDLSMPRIGCGLDRLQWENVSAMIEEVFEATDIKITVYTL [K84A]

Variants of: B2
Details: with par10_human PARP10, Q53GL7

effect of a mutation on the interaction | Variant
disrupting interaction | MASSLNEDPEGSRITYVKGDLFACPKTDSLAHCISEDCRMGAGIAVLFKKKFGGVQELLNQQKKSGEVAVLKRDGRYIYYLITAKRASHKPTYENLQKSLEAMKSHCLKNGVTDLSMPRIGCGLDRLQWENVSAMIEEVFEATDIKITVYTL [K84A]

Variants of: B2
Details: with par10_human PARP10, Q53GL7
Remark: another data set of the same source

effect of a mutation on the interaction | Variant
disrupting interaction | MASSLNEDPEGSRITYVKGDLFACPKTDSLAHCISEDCRMGAGIAVLFKKKFGGVQELLNQQKKSGEVAVLKRDGRYIYYLITKKRASHKPTYENLQKSLEAMKSHCLKNGVTDLSMPRIGCGLARLQWENVSAMIEEVFEATDIKITVYTL [D125A]
